Where no end group is shown, it is not given here.

A short description of data set [1]: pH and appearance of 2.5% peptide solutions after adding 0.1 N NaOH. It is filed as physicochemical. As to the method: To adjust the pH level of the peptide solutions by way of example, 0.1 N NaOH was added to 2 mL of 2.5% peptide solutions and their pH and appearance were measured.
Data set [2] is described as follows: Gelation kinetics of pH adjusted peptides, time sweep test with DMEM. It is filed as physicochemical. As to the method: The effect of pH level on the properties of gelation kinetics was evaluated to identify optimized pH levels for the peptides as described herein. Fast gelation kinetics of PuraMatrix® and other peptides within body fluid may generally improve its function and response time for various clinical applications. The pH level may impart response time to begin gelation when treated with simulated body fluid including but not limited to DMEM. […] A fast response time of PuraMatrix® (SEQ ID NO:1) and other peptides within body fluid may generally improve its function and response time for various clinical applications.
Time sweep tests were performed at 1 rad/sec and at 1 Pa with 20 mm plates and 500 μm gap distance. During time sweep test of PuraMatrix® (SEQ ID NO:1) 2.5% solution, DMEM was added into the chamber surrounding the measuring plates to soak PuraMatrix® (SEQ ID NO:1) solution at 0 time point. The results are shown in FIG. 9A for PuraMatrix® (SEQ ID NO:1) 2.5% solution.
Time sweep tests were performed at 1 rad/sec and at 1 Pa with 20 mm plates and 500 μm gap distance. During time sweep test of IEIK13 (SEQ ID NO:2) 1.5% solution, DMEM was added into the chamber surrounding the measuring plates to soak IEIK13 (SEQ ID NO:2) 1.5% solution at 0 time point and continuously data was recorded. The results are shown in FIG. 9B for IEIK13 (SEQ ID NO:2) 1.5% solution.

Data set [3] in a line: Rheological properties of ionic strength adjusted hydrogels after DMEM treatment for 10 min. It is filed as physicochemical. Conditions: 1% hydrogels. As to the method: Based on the results of the effect on the rheological properties of the peptide solutions after adjusting their ionic strength levels, the effect on the rheological properties of the peptide hydrogels after DMEM treatment for 10 min was evaluated. […] The results are shown in FIG. 15 for PuraMatrix® (SEQ ID NO:1) 1% hydrogels and in FIG. 16 for IEIK13 (SEQ ID NO:2) 1% hydrogels, both after DMEM treatment for 10 min. Frequency sweep tests were performed from 1 rad/sec to 10 rad/sec at 1 Pa and the storage modulus at 1 rad/sec was selected for data.
Based on the results of the effect on the rheological properties of the peptide solutions and hydrogels after adjusting their ionic strength levels with NaCl, the effect of various salts (KCl, MgCl2, and CaCl2) was also evaluated. The rheological property of PuraMatrix® (SEQ ID NO:1) solutions increases with ionic strength adjustment at 0.15 M of all the salts. Increases of the rheological property of PuraMatrix® (SEQ ID NO:1) solutions with various salts were not predominantly different. However, increases of the rheological property of PuraMatrix® (SEQ ID NO:1) solutions may vary depending on the salting out constant, K of each salt. Constant K is a constant in Cohen's equation: log S=B−KI, where S is solubility, B is idealized solubility, K is salting out constant, and I is ionic strength. With a higher value of constant K and ionic strength of salts, solubility of the peptide may decrease resulting in strong peptide self-assembly with increased hydrophobic effect and higher rheological properties of the peptide solution. The constant K of NaCl may be higher than the other salts. […] The results are shown in FIG. 17 for PuraMatrix® (SEQ ID NO:1) 1% solution before DMEM treatment, and in FIG. 18 for PuraMatrix® (SEQ ID NO:1) 1% hydrogels after DMEM treatment for 10 min Frequency sweep tests were performed from 1 rad/sec to 10 rad/sec at 1 Pa and the storage modulus at 1 rad/sec was selected for data.

The subject of a further data set is Swine lungs. The experiment in a line: Lung volume reduction: injection of peptide hydrogel into bronchi of excised lungs. Conditions: for filling of lumens of the lungs (histology): hydrogel with 0.00585% Indigo Carmine. The source says:
Swine lungs were obtained from freshly euthanized pigs. An endotracheal tube, connected to a syringe filled with a peptide hydrogel, was inserted through the trachea and primary bronchus into the lobe of interest. The tube was led through the bronchi to the end of the appropriate lobe and the distance was noted.
The self-assembling peptide hydrogels were comprised of Ac-RADARADARADARADA-NH2 (SEQ ID NO: 1) (i.e., RADA16) or Ac-IEIKIEIKIEIKI-NH2 (SEQ ID NO: 2) (i.e., IEIK13). RADA16 (SEQ ID NO:1) or IEIK13 (SEQ ID NO:2) was mixed with 0.00585% Indigo Carmine to observe spreading of the hydrogels throughout the lobes. When mixed, the peptides were reconstituted with […]. The peptides were reconstituted first in deionized water, and subsequently with 1% Indigo Carmine to provide a final concentration of 0.00585% of the contrast reagent.
Once the lobe of interest was identified, the endotracheal tube was fed to the end where the hydrogels were injected. After each injection of 1 ml of hydrogel the tube was retracted 2 cm and the injection was repeated. This procedure was repeated until a backflow of hydrogel was observed from the bronchi and the total volume of hydrogel injected was noted. The final injection ranged from 0.5-1.5 ml. After backflow of hydrogel was observed, the lobes were cut at 90 degrees to the midline for histological analysis. FIG. 25 illustrates the procedural flow of injecting peptide hydrogel into the bronchi of a single lobe of the lung and observation of penetration of the solution. Lumen penetration of 1% Indigo Carmine solution (left) was compared to 1.5% IEIK13 (SEQ ID NO:2)+0.00585% Indigo Carmine (right).
Tissue samples were fixed in paraformaldehyde and rinsed with ethanol. Histology was conducted at Beth Israel Deaconess Medical Center. […] FIG. 28A presents the IEIK13 (SEQ ID NO:2) gel observed within the major lumens. FIG. 28B presents the IEIK13 ((SEQ ID NO:2) gel observed within the minor lumens. Due to H&E processing, peptide gels break/fragment. Optical imaging has shown that these gels remain as bulk structures.

[4] abbreviates: 0.1N NaOH 150 μL/mL added in 2.5% solution, conc. 2.17%.
Setting [5] is: 0.1N NaOH 200 μL/mL added in 2.5% solution, conc. 2.08%.
The mark [6] stands for this setting: 0.1N NaOH 250 μL/mL added in 2.5% solution, conc. 2.0%.
The mark [7] stands for this setting: 0.1N NaOH 275 μL/mL added in 2.5% solution, conc. 1.96%.
The mark [8] stands for this setting: 0.1N NaOH 300 μL/mL added in 2.5% solution, conc. 1.92%.
Setting [9] is: 0.1N NaOH 350 μL/mL added in 2.5% solution, conc. 1.85%.
[10] abbreviates: NaOH volume and conc. not given.
Setting [11] is: peptide solution pH 7.0, NaOH volume and conc. not given.
The mark [12] stands for this setting: with pH adjustment, PuraMatrix 2.5%, IEIK13 1.5% solution.

Consider “Arg-Ala-Asp-Ala-Arg-Ala-Asp-Ala-Arg-Ala-Asp-Ala-Arg-Ala-Asp-Ala [PuraMatrix ®]”, for which the Appearance entry in data set [1] (setting [4]) is listed as “Clear, thick, stiffer gel”; in data set [1] (setting [5]), “Clear, thick, stiffer gel”; in data set [1] (setting [6]), “Clear, thick, stiffer gel”; in data set [1] (setting [7]) it was “Clear, thick, stiffer gel”; in data set [1] (setting [8]) it was “Slightly cloudy, brittle gel”; in data set [1] (setting [9]), “Cloudy, phase-separated”. In addition, the Appearance entry in data set [1] (setting [11]) is reported as “Cloudy, phase-separated”. In addition, in data set [1] (setting [10]), the “Peptide solution pH” value was determined as 7.0. Further, in data set [2] (setting [12]), the “gelation response to DMEM” value was “immediate storage modulus increase”. For the same substance, the “ionic strength above which the rheological property of hydrogels after DMEM treatment decreases” value in data set [3] (DMEM treatment for 10 min) is listed as “above 0.7 M”. Moreover, the “ionic strength up to which the rheological property of hydrogels after DMEM treatment increased” value in data set [3] (DMEM treatment for 10 min) is recorded as “up to 0.7 M”. In the data set with Swine lungs (1.0% with 0.00585% Indigo Carmine), the “lung volume reduction, penetration into lung tissue, versus 1.5% IEIK13” value is “decidedly better”. Moreover, in the data set with Swine lungs, the “filling of lumens of the lungs (histology)” value is “filled both major and minor lumens”.
Turning to KLDLKLDLKLDL [KLD12], the Appearance result in data set [1] (setting [4]) is “Clear, thick and stiffer gel”; in data set [1] (setting [5]) it was “Clear, thick and stiffer gel”; in data set [1] (0.1N NaOH 225 μL/mL added in 2.5% solution, conc. 2.04%), “Clear, thick and stiffer gel”; in data set [1] (setting [6]), “Slightly cloudy, brittle gel”; in data set [1] (setting [9]), “Cloudy, phase-separated”; in data set [1] (setting [11]), “Cloudy, phase-separated”. In addition, the “Peptide solution pH” value in data set [1] (setting [10]) stood at 7.0.
For the substance “Ile-Glu-Ile-Lys-Ile-Glu-Ile-Lys-Ile-Glu-Ile-Lys-Ile [IEIK13]”, the Appearance entry in data set [1] (setting [4]) is listed as “Clear, thick gel, stiffer gel”; in data set [1] (setting [5]), “Clear, thick gel, stiffer gel”; in data set [1] (setting [6]), “Clear, thick gel, stiffer gel”; in data set [1] (setting [7]) it was “Clear, thick, stiffer gel”; in data set [1] (setting [8]), “Slightly cloudy, brittle gel”; in data set [1] (0.1N NaOH 400 μL/mL added in 2.5% solution, conc. 1.79%), “Cloudy, phase-separated”. Moreover, in data set [1] (setting [11]), the Appearance result is “Cloudy, phase-separated”. Also, the “Peptide solution pH” value in data set [1] (setting [10]) is 7.0. Also, the “gelation response to DMEM” value in data set [2] (setting [12]) was “immediate storage modulus increase”; in data set [2] (without pH adjustment, 1.5% solution), “immediate storage modulus increase”. Further, in data set [3] (DMEM treatment for 10 min), the “ionic strength above which the rheological property of hydrogels after DMEM treatment decreases” value is given as “above 0.03 M”. The “rheological property of hydrogels after DMEM treatment” value in data set [3] (ionic strength adjustment up to 0.025 M, DMEM 10 min) is on record as “did not significantly change”. For the same substance, the “filling of lumens of the lungs (histology)” value in the data set with Swine lungs is “filled both major and minor lumens”.

For the origin of these results see patent publication US20220160939A1, “SELF-ASSEMBLING PEPTIDES AS BRONCHIAL OBSTRUCTION AGENTS” (3-D MATRIX, LTD., priority 2014, published 2022).
